According to the DeepSol protein solubility set:

assay: soluble on expression in E. coli; label from the status in PepcDB or PDB records

Question: With “MSLSSKDLKLSTDVCEQILRVVSRSNRLEELVLENAGLRTDFAQKLASALAHNPNSGLHTINLAGNPLEDRGVSSLSIQFAKLPKGLKHLNLSKTSLSPKGVNSLSQSLSANPLTASTLVHLDLSGNVLRGDDLSHMYNFLAQPNAIVHLDLSNTECSLDMVCGALLRGCLQYLAVLNLSRTVFSHRKGKEVPPSFKQFFSSSLALMHINLSGTKLSPEPLKALLLGLACNHNLKGVSLDLSNCELRSGGAQVLEGCIAEIHNITSLDISDNGLESDLSTLIVWLSKNRSIQHLALGKNFNNMKSKNLTPVLDNLVQMIQDEESPLQSLSLADSKLKTEVTIIINALGSNTSLTKVDISGNGMGDMGAKMLAKALQINTKLRTVIWDKNNITAQGFQDIAVAMEKNYTLRFMPIPMYDASQALKTNPEKTEDALQKIENYLLRNHETRKYLQEQAYRLQQGIVTSTTQQMIDRICVKVQDHLNSLRNCGGDAIQEDLKSAERLMRDAKNSKTLLPNLYHVGGASWAGASGLLSSPIQETLESMAGEVTRVVDEQLKALLESMVDAAENLCPNVMKKAHIRQDLIHASTEKISIPRTFVKNVLLEQSGIDILNKISEVKLTVASFLSDRIVDEILDALSHCHHKLADHFSRRGKTLPQQEGHHHHHH” as the sequence, how does the “soluble on expression in E. coli” value read?
Answer: not soluble

Question: For “DKIIMDPHAVLGPVDPQLGQYPAPSIVRAVEKKGVDKVDDQTLILADVAEKAIRQVRDFIFNLLKDKYGEEKAKELAQVLTEGRWTHDYPITVEEAKKLGLNVSTDVPEEVYALMELYKQPIRQRGTVEFVPYPMKQEGK”, which “soluble on expression in E. coli” value is on record?
Answer: not soluble

Question: With “MERDRISALKRSFEVEEVETPNSTPPRRVQTPLLRATVASSTQKFQDLGVKNSEPSARHVDSLSQRSPKASLRRVELSGPKAAEPVSRRTELSIDISSKQVENAGAIGPSRFGLKRAEVLGHKTPEPAPRRTEITIVKPQESAHRRMEPPASKVPEVPTAPATDAAPKRVEIQMPKPAEAPTAPSPAQTLENSEPAPVSQLQSRLEPKPQPPVAEATPRSQEATEAAPSCVGDMADTPRDAGLKQAPASRNEKAPVDFGYVGIDSILEQMRRKAMKQGFEFNIMVVGQSGLGKSTLINTLFKSKISRKSVQPTSEERIPKTIEIKSITHDIEEKGVRMKLTVIDTPGFGDHINNENCWQPIMKFINDQYEKYLQEEVNINRKKRIPDTRVHCCLYFIPATGHSLRPLDIEFMKRLSKVVNIVPVIAKADTLTLEERVHFKQRITADLLSNGIDVYPQKEFDEDSEDRLVNEKFREMIPFAVVGSDHEYQVNGKRILGRKTKWGTIEVENTTHCEFAYLRDLLIRTHMQNIKDITSSIHFEAYRVKRLNEGSSAMANGVEEKEPEAPEM” as the sequence, how does the “soluble on expression in E. coli” value read?
Answer: not soluble

Question: Which “soluble on expression in E. coli” value does the source give for “MGLFDFFKKKSSSEKTPIEDGDKTVVKSEDTDDSAPGWEAIDAEFDRLYPDQPNPLHYGTIVKYMFGGPDPLDGISVYDAGDFWHFVSYGLSELYTKESTDSEYSGYGIELTFKLKKSTNDEEEIKNGCGLLQYVARYIFKTGKVVLPEEYIYMKQTVGIDIQQKSKLTGFLTVSDNLAKPLDTPHGKVEFVTLIGATDAELRSVYESETSKLEVRKLLQELGNQITDYNRQSLVLEHHHHHH” here?
Answer: not soluble

Question: With “MANGKSKNTKKDGVDKKKTSKTKKKSNLSISKSQTSVDMNEKDKSKEAKEAKELKEKKAKEEAEKKVVATPKKDASKDQAKKEEDPNKQNEPSGMDVLVKEDGKKTKMDDGYEDFGPGAGAAQ” as the sequence, how does the “soluble on expression in E. coli” value read?
Answer: not soluble

Question: For “MKETNGIPARLRQVAVIRDGPRQETVVLEADGMYYIKGETVYLQFAEENELGRVNNIVKIAPDEVTVLRSGAVEMRQTSRRRQETSGHYGTVFGRWALAAKTSSMEFHYDERRKKGRLFLSYELMLGDERSGRHTLTLTFKGV”, which “soluble on expression in E. coli” value is on record?
Answer: not soluble

Question: For “MYVYKRDGRKEPVQFDKITARISRLCYGLDPKHIDAVKVTQRIISGVYEGVTTIELDNLAAETCAYMTTVHPDYATLAARIAISNLHKQTTKQFSKVVEDLYRYVNAATGKPAPMISDDVYNIVMENKDKLNSAIVYDRDFQYSYFGFKTLERSYLLRINGQVAERPQHLIMRVALGIHGRDIEAALETYNLMSLKYFTHASPTLFNAGTPKPQMSSCFLVAMKEDSIEGIYDTLKECALISKTAGGIGLHIHNIRSTGSYIAGTNGTSNGLIPMIRVFNNTARYVDQGGNKRPGAFALYLEPWHADIFDFIDIRKNHGKEEIRARDLFPALWIPDLFMKRVEENGTWTLFSPTSAPGLSDCYGDEFEALYTRYEKEGRGKTIKAQKLWYSILEAQTETGTPFVVYKDACNRKSNQKNLGVIKSSNLCCEIVEYSAPDETAVCNLASVALPAFIETSEDGKTSTYNFKKLHEIAKVVTRNLNRVIDRNYYPVEEARKSNMRHRPIALGVQGLADTFMLLRLPFDSEEARLLNIQIFETIYHASMEASCELAQKDGPYETFQGSPASQGILQFDMWDQKPYGMWDWDTLRKDIMKHGVRNSLTMAPMPTASTSQILGYNECFEPVTSNMYSRRVLSGEFQVVNPYLLRDLVDLGIWDEGMKQYLITQNGSIQGLPNVPQELKDLYKTVWEISQKTIINMAADRSVYIDQSHSLNLFLRAPTMGKLTSMHFYGWKKGLKTGMYYLRTQAASAAIQFTIDQKIADQATENVADISNLKRPSYMPSSASYAASDFVPAAVTANATIPSLDSSSEASREASPAPTGSHSLTKGMAELNVQESKVEVPEVPAPTKNEEKAAPIVDDEETEFDIYNSKVIACAIDNPEACEMCSG”, which “soluble on expression in E. coli” value is on record?
Answer: soluble

Question: For “LAKGLEDVYIDQTNICYIDGKEGKLYYRGYSVEELAELSTFEEVVYLLWWGKLPSLSELENFKKELAKSRGLPKEVIEIMEALPKNTHPMGALRTIISYLGNIDDSGDIPVTPEEVYRIGISVTAKIPTIVANWYRIKNGLEYVPPKEKLSHAANFLYMLHGEEPPKEWEKAMDVALILYAEHEINASTLAVMTVGSTLSDYYSAILAGIGALKGPIHGGAVEEAIKQFMEIGSPEKVEEWFFKALQQKRKIMGAGHRVYKTYDPRARIFKKYASKLGDKKLFEIAERLERLVEEYLSKKGISINVDYWSGLVFYGMKIPIELYTTIFAMGRIAGWTAHLAEYVSHNRIIRPRLQYVGEIGKKYLPIELRR”, which “soluble on expression in E. coli” value is on record?
Answer: soluble

Question: Which “soluble on expression in E. coli” value does the source give for “MLSETELRALKKLSTTTSRVVGDSTLALPSNVKLSKGEVEKIAVTKKEMFDELAQCNLPTIELITREHTFNGDVIRFAAWLFLMNGQKLMIANNVAVRMGMQYATNLAGNNVKITYVTSNNVVKLGHIAAGVLANPYSNKGSGLFITYEHNLISNQIETGKVCVLFITSLSTTASSTNSFAYSACSVPIEDWDFNMIKLTAETSCASLTAMTNLVNSLVPGERTRPVGLYVDIPGVTVTTSASSGSLPLTTIPAVTPLIFSAYTKQVEEVGVINTLYALSYLP” here?
Answer: soluble

Question: For “MKVLILGGGYTGQRLAQLLAAQSIPVLATTRSGQWPLDEPCVTFDAGSTPLLLPDPAALAGVTHVLSTIPPLGDGGDPVLSTLLPTLQYLSLQWCGYLSTTGVYGDTQGAWVDEDSPLQSTNRRSQQRIAIEAQWLASGLPAHIFRLPGIYGPGRSSFDRLRRGDNQRLLKPGHVFCRIHVDDIAAALWASLQQPNPGRIYNVSDDFPCEPALLIEAAAQLMGVELPPPLPVDAVELSPMAASFWSECRRVRNDRLKQELGVQLRYPSYREGLAAIWAAELEHHHHHH”, which “soluble on expression in E. coli” value is on record?
Answer: not soluble

Question: For “MSLEAKMEQIYQQIADTLVNIVPEEWKQILLYAEYREGYKKIFFYYYPETRIKPVYSLDITDLFHMNEDKYHELENKLYHCFSRLWEEFKEQEQQQWTNLTYTLDNTGRMKINYGYEDLFELSPVEKQEKWEAEYLEQEIEEGHHHHHH”, which “soluble on expression in E. coli” value is on record?
Answer: soluble

Question: For “MGSDKIHHHHHHMSEEQKTISISELESMNIKQLYEIAKSLGIPRYTSMRKRDLIFAILKAQTESTGYFFGEGVLEIHPEGFGFLRRIEDNLLPSNDDIYISPSQIRKFNLNTGDIISGVIRKPKEGEKYFAMIKIEAINYRPVEAVNDRVNFDNLTPDYPRERFILETDPKIYSTRLIDLFAPIGKGQRGMIVAPPKAGKTTILKEIANGIAENHPDTIRIILLIDERPEEVTDIRESTNAIVIAAPFDMPPDKQVKVAELTLEMAKRLVEFNYDVVILLDSLTRLARVYNIVVPPSGKLLTGGVDPAALYKPKRFFGAARNTREGGSLTIIATALVETGSKMDEVIFEEFKGTGNMELVLSRQLANKRIFPAINLLLSGTRREELLLDEETLKKVWLLRRMLSAMTEEEGLTLILNKLSETSSNEEFLKLIDKEKARY”, which “soluble on expression in E. coli” value is on record?
Answer: not soluble

Question: For “QGWEKALYTLVTLYVTTRVIDAIHTRHMKLTAMIVTKKADEIKEAIYGKMVRGITTVPAKGAFTNEQKEMMIIVITRYELYDLEKIVKEVDPKAFTNIVQTTGIFGFFRKD”, which “soluble on expression in E. coli” value is on record?
Answer: not soluble

Question: Which “soluble on expression in E. coli” value does the source give for “GVVIREALSSSNAVPAIDFDRKELIDIPAYQGPGKNVVRPPVDLDPSYNPFKETGLTEPIRSSRRQSPDMGWNELFKQFEAKRDAEKMAEPPIRSEELFASTDFTPSAVSATPSTDMLCYVHRGRYLVTTLSRGLALVDFHRAHKRILYDRFMADESRRHIEQQQLLFPELLEFNPSDASAVKAAVDELQSVGFDLSPLGVSSYSLLAAPVQIIDCAADVVRDVIHTTLEDGRSSHEQMLELIATQIAEYQAIPCGKTPTAEEASDLLAELFASNDSTYTPDGKLIVSIIEEADIARRFE” here?
Answer: not soluble

Question: With “MGSDKIHHHHHHMNKMKIAHLTSAHPRHDIRIFVKECSSLAAAGHEVTLIVADGQGEEIRNGVRIHDVGPKRGGRLARMTGTVKRVYQAALRLRPDVVHFHDPELIPAGVRLKQAGIKVVYDVHEDVPRQILAKHWIPGAVRPLVSGGFETLEDWAARRFDAIVTSTPHIRKRFERLGANALDVCNFPILEELVRDTPWESRRNEVCYIGGISRIRGIEPIVAALPDTSTRLNLAGPWSESDLRAKVTAEPGWARVNDLGVLDRKGVAEVLARSKIGLVTLFPTPNYVDALPIKLFEYMAAGMPVIASDFPVWREIVADAGCGVLVDPQDAAAIAAAINELLGDEERMRKLGESGKRAVLSKYSWAAEADKLVALYASL” as the sequence, how does the “soluble on expression in E. coli” value read?
Answer: not soluble

Question: For “MGSDKIHHHHHHMNELDIIKIISKNLSYSNGVEKGIGDDCAVFKFENQHLVVTTDMMFKSTHFPSILTPFQIGMRVVTANVSDIAAMCAKPLGMVISMGFDNPKKTFIDEMSKGINFISKEYGCPIAGGDTNKAPELTLSGTAFGITDNPIYRGGIIGEDICITGDVGKVNCALKLLEMKDKGILGNIEFEKTMSEFPRIMKKLAEPKARVKEGLLLNKIITSCCDISDGLSKDLNYTGNFEINSKNLLNSVSREVIEFCEKFDMDLLKTVLNSGEEFELLFTTPDFKKAEEKLKDINSVTKIGKVVESGKTVDGISVELEGYVHKW”, which “soluble on expression in E. coli” value is on record?
Answer: not soluble

Question: For “MAPLNYKTITSRSILSKVLVRATQQWPTDKTLNKQLSELYGAYVNSFVSKFKDKHVITISLEVVNEKFLKDKTPLFEKGLDTLKEIIWNPLIKDRCFDHTYVAQEKSLLSKKLEAMEDNKAQYSFLQLMNYMFKQEPYRYIATGQLEQIPQVTSESLYDTYLSMVQNDDCAIYVVGNINKEEVTQLILDKFAIKPFYLENKESTEITPSFDQPQYIIEKDDVDQAKLNLGYRFPSYYGKSNYYAFIVLNMMFGGDPSSVLFNEVREKQSLAYSIHSQIDGKNGFLFVLSGVSAEKYEQAKDTVIKEFDKIKNGDFDSNKIELAKKIIISHRHEASDRPKSIIEILHNQLLLNRQQTDQDFINAVNQVTKKDVIKLANEAVLDTIYVLTKGDQH”, which “soluble on expression in E. coli” value is on record?
Answer: not soluble
